Biological target: human CCR3 (human) (UniProt P51677)
Test: cell-based or functional assay

human CCR3 (human), sequence (P51677 whole entry): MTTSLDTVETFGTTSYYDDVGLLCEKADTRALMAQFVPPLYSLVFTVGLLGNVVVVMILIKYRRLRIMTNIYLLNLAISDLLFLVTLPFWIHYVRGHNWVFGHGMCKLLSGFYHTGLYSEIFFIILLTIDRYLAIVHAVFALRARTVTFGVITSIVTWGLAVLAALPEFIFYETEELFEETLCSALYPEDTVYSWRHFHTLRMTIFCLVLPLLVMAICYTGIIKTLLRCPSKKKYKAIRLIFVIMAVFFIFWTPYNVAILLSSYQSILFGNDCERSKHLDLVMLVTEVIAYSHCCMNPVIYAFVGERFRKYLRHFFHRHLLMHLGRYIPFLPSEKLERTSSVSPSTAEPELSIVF

- reduction of 25 nM eotaxin-induced Ca^2+ flux in HOS-CCR3 cells by 100 nM antagonist: 35%
Substance: aminooxypentane (AOP)-RANTES (from UniProt P13501 24-91) (ligand)

From patent US20030143192A1
